T1: 3’hExofl (human, UniProt Q8IV48 1-349)
T1 sequence (looked up): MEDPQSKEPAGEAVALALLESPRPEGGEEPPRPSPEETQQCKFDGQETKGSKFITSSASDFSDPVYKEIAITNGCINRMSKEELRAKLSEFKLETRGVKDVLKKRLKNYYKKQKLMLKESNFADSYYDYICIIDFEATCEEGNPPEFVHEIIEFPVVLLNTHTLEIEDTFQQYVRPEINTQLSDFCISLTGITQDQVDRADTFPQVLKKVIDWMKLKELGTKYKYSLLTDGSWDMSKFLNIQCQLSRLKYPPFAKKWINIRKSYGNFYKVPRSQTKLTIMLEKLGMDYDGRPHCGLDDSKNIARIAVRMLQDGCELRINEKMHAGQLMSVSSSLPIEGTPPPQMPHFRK

T2: 3’hExo nuclease domain (human, UniProt Q8IV48 124-349)
T2 sequence (looked up): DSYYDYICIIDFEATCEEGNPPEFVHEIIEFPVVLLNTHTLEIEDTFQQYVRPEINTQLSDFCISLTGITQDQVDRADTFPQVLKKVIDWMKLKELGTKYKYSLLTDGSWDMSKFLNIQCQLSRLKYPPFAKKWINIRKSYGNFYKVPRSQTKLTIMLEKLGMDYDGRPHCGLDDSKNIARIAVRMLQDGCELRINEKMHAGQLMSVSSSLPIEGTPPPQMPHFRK

B1: 3’hExo (construct of the SPR experiment not stated) (enzyme)
chain: T1 sequence (looked up)
B2: UPF2^1024-1085 (domain or fragment, human, UniProt Q9HAU5 1024-1085, looked up)
chain: TEGENLEEDEEEEEGGAETEEQSGNESEVNEPEEEEGSDNDDDEGEEEEEENTDYLTDSNKE
modifications: also: 15N-labelled
B3: 3’hExo SAP domain (domain or fragment, human, UniProt Q8IV48 63-124, looked up)
chain: DPVYKEIAITNGCINRMSKEELRAKLSEFKLETRGVKDVLKKRLKNYYKKQKLMLKESNFAD
B4: UPF2-AL (domain or fragment, human, UniProt Q9HAU5 1015-1106, looked up)
chain: NDKDSKDSMTEGENLEEDEEEEEGGAETEEQSGNESEVNEPEEEEGSDNDDDEGEEEEEENTDYLTDSNKENETDEENTEVMIKGGGLKHVP
modifications: 15N-labelled (15N/13C for the assignments) in the NMR experiments

Experiments:
[1] = molecular target: UPF2 (construct of the SPR experiment not stated) (human); assay: SPR
Chain of UPF2 (construct of the SPR experiment not stated) (human) (Q9HAU5 whole entry): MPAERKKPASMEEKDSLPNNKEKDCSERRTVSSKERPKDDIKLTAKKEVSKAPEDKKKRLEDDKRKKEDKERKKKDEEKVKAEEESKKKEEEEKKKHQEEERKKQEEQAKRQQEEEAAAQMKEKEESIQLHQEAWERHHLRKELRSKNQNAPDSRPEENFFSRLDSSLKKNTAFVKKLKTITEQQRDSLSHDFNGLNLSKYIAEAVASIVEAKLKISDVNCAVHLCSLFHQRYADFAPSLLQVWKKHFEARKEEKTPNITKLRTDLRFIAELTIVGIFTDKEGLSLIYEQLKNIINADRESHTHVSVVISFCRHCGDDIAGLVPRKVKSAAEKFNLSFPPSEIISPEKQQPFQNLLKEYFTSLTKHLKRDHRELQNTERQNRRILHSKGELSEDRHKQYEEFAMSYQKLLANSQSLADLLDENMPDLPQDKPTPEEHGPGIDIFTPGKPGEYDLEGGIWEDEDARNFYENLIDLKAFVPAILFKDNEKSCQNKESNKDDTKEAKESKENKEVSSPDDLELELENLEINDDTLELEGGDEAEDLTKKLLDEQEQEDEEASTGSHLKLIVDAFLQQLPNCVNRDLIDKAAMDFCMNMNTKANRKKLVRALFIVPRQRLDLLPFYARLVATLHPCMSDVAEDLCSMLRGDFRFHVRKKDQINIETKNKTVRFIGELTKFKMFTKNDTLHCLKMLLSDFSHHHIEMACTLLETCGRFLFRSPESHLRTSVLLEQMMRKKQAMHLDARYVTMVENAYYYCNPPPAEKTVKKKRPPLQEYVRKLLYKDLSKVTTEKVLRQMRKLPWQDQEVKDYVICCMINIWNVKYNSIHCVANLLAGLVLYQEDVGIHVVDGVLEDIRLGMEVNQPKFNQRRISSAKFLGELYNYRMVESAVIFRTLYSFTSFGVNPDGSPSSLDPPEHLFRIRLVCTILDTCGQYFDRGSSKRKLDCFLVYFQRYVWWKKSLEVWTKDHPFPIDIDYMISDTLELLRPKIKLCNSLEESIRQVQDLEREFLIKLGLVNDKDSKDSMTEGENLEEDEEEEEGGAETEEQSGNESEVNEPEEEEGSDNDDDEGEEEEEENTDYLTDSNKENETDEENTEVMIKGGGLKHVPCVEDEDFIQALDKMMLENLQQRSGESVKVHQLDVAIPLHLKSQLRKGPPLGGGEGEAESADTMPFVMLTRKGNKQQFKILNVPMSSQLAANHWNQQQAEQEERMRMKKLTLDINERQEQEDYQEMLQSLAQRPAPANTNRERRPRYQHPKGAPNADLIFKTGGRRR

[2] = molecular target: T1, 3’hExofl; assay: NMR titration
[3] = molecular target: B4; assay: NMR titration
[4] = molecular target: T1, 3’hExofl; assay: SEC
[5] = molecular target: T2, 3’hExo nuclease domain; assay: NMR titration

Binder: B1
- Kd [1]: 170 µM

Binder: B2
- Kd [2]: ~200 µM

Binder: B3
- binding result [3]: binds

Binder: B4
- binding result [4]: binds
- binding result [5]: binds
